Measurements published in publication PMC5244417, “Time-resolved neutron scattering provides new insight into protein substrate processing by a AAA+ unfoldase” (Scientific Reports, 2017).
Several values for one entry are separate records, joined by “and”; a condition that tells them apart may be missing. Equal values may be shown once.

Target: the molecule itself
Assay: SEC; Superose 6 gel filtration of purified PAN, before heating

B1: PAN (proteasome activating nucleotidase) unfoldase from Methanocaldococcus jannaschii (enzyme, UniProt Q58576 1-430, looked up)
chain: MVFEEFISTELKKEKKAFTEEFKEEKEINDNSNLKNDLLKEELQEKARIAELESRILKLELEKKELERENLQLMKENEILRRELDRMRVPPLIVGTVVDKVGERKVVVKSSTGPSFLVNVSHFVNPDDLAPGKRVCLNQQTLTVVDVLPENKDYRAKAMEVDERPNVRYEDIGGLEKQMQEIREVVELPLKHPELFEKVGIEPPKGILLYGPPGTGKTLLAKAVATETNATFIRVVGSELVKKFIGEGASLVKDIFKLAKEKAPSIIFIDEIDAIAAKRTDALTGGDREVQRTLMQLLAEMDGFDARGDVKIIGATNRPDILDPAILRPGRFDRIIEVPAPDEKGRLEILKIHTRKMNLAEDVNLEEIAKMTEGCVGAELKAICTEAGMNAIRELRDYVTMDDFRKAVEKIMEKKKVKVKEPAHLDVLYR
notes: Purified as a mixture of dodecamers and hexamers; Monodisperse hexamers were obtained after heating at 60 °C with ATP and MgCl2; Perdeuterated PAN (dPAN) was used for the SANS data on PAN; also called MjPAN; PAN complex
  stoichiometry N: 12 and 6
